From paper PMC4370744, “Expression and purification of functional human glycogen synthase-1:glycogenin-1 complex in insect cells” (Protein Expression and Purification, 2015)

Biological target: T1, human glycogenin-1 (GN1), GST removed by PreScission protease (human, UniProt P46976 1-350, glycosylated (degree of glycosylation modest))
T1 construct: human glycogenin-1 (GN1), NM 004130; released from GST at the PreScission site; the introduction speaks of a complete full-length complex; Same construct as m2 after cleavage; source: Sf9, co-expressed with GYS1; purified with GYS1 (glutathione Sepharose, eluted by GST-tagged PreScission protease, Superdex 200)
T1 sequence (looked up): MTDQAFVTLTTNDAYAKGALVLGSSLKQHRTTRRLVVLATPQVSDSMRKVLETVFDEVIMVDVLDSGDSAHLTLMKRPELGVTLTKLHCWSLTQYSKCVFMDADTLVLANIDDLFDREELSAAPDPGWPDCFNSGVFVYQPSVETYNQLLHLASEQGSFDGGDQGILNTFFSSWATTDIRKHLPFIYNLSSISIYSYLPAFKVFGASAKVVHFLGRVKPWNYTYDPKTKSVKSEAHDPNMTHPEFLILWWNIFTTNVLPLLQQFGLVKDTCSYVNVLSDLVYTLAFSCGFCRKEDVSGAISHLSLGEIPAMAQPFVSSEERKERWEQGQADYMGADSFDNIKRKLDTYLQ
Assay: SEC; analytical: purified GYS1:GN1 (5 ug) on Superdex 200 3.2/300, 20 mM TES pH 7.4, 150 mM KCl, 1 mM DTT; apparent MW against protein standards
Details: both partners purified

B1: human muscle glycogen synthase (GYS1) (enzyme, UniProt P13807 1-737, looked up)
chain: MPLNRTLSMSSLPGLEDWEDEFDLENAVLFEVAWEVANKVGGIYTVLQTKAKVTGDEWGDNYFLVGPYTEQGVRTQVELLEAPTPALKRTLDSMNSKGCKVYFGRWLIEGGPLVVLLDVGASAWALERWKGELWDTCNIGVPWYDREANDAVLFGFLTTWFLGEFLAQSEEKPHVVAHFHEWLAGVGLCLCRARRLPVATIFTTHATLLGRYLCAGAVDFYNNLENFNVDKEAGERQIYHRYCMERAAAHCAHVFTTVSQITAIEAQHLLKRKPDIVTPNGLNVKKFSAMHEFQNLHAQSKARIQEFVRGHFYGHLDFNLDKTLYFFIAGRYEFSNKGADVFLEALARLNYLLRVNGSEQTVVAFFIMPARTNNFNVETLKGQAVRKQLWDTANTVKEKFGRKLYESLLVGSLPDMNKMLDKEDFTMMKRAIFATQRQSFPPVCTHNMLDDSSDPILTTIRRIGLFNSSADRVKVIFHPEFLSSTSPLLPVDYEEFVRGCHLGVFPSYYEPWGYTPAECTVMGIPSISTNLSGFGCFMEEHIADPSAYGIYILDRRFRSLDDSCSQLTSFLYSFCQQSRRQRIIQRNRTERLSDLLDWKYLGRYYMSARHMALSKAFPEHFTYEPNEADAAQGYRYPRPASVPPSPSLSRHSSPHQSEDEEDPRNGPLEEDGERYDEDEEAAKDRRNIRAPEWPRRASCTSSTSGSKRNSVDTATSSSLSTPSEPLSPTSSLGEERN
modifications: heavily phosphorylated: phospho-T54, T372, S412, S486, S641, S645, S647, S652, S653, S657, S710, S727 (LC-MS), S8/S11 (immunoblot); about 6 mol phosphate per mol total protein (GYS1 + GN1)
notes: human muscle glycogen synthase GYS1, NM 002103, UniProt P13807; no tag; the introduction speaks of a complete full-length complex; tryptic peptides up to residue 737 were found; the methods say only 'genes coding for human GYS1'; also called glycogen synthase-1; GYSb (native, phosphorylated form); source: Sf9, co-expressed with GST-tagged GN1 from a bicistronic pFastBac-Dual baculovirus; in …
  stoichiometry N: ~1 GYS1 per GN1 (printed as 4:4)
